What was measured:
HEK293-T = assay: Luciferase expression in normoxia vs 24 h hypoxia, transiently transfected HEK293-T; type: cell-based, human; details: for relative rank of promoter strength: 24 h hypoxia vs 24 h normoxia
Protocol: HEK293-T are seeded at a density of 20%. Once they reached a confluence between 60 and 80%, the media is changed with DMEM (#21885-025—Thermo Scientific) supplemented with 10% FBS (Gibco, 26140). After 3 hours, the cells were transfected by a transfection mix. The transfection mix is prepared by adding DNA ([…] per 6 well plate) and PEI 25 kDA (#23966-1—Polyscience) in a ratio of 1:3 in sterile DPBS (#14190169—ThermoFisher Scientific). After mixing, the transfection mix is incubated at room temperature for 30 minutes and then added directly to the cells. After 16 to 18 h post transfection, the media is changed to DMEM+2% FBS. The transfected DNA was one of the vectors where the promoter constructs (RTV-015, HYBT, RTV-016, HV3C) or a control promoter (CMV-IE) were used to drive luciferase expression and β-galactosidase containing pcDNA6 plasmid. The β-galactosidase containing plasmid was used as internal control for transfection efficiency (Thermofisher, V22020).
(§1) After transfection the cells were incubated for 24 hrs in normoxic conditions (20% oxygen). Induction of the promoters was assessed by using luciferase activity after 24 hrs in normoxia or hypoxia (5% oxygen, 10% carbon dioxide and 85% nitrogen). Hypoxia was achieved by gas displacement in a sealed hypoxia chamber.
(§2) Luciferase activity was measured using LARII (Dual Luciferase Reporter 1000 assay system, Promega, E1980).
Media was removed from the cells at the respective time point (0, 3, 5, 24 hrs after induction). The cells were washed once in 300 μl of DPBS. Cells were lysed by adding 100 μl of passive lysis buffer to the cells and incubation with rocking for 15 minutes. The cell debris was pelleted by centrifugation of the plate at max speed in a benchtop centrifuge for 1 min. 10 μl of supernatant was pipetted into white 96-well plate and luminescence measured by addition of 50 μl of LARII substrate.
β-galactosidase activity was measured as per manufacturer's instructions (Mammalian βGalactosidase Assay Kit, 75707/75710, Thermo Scientific) using 25 μl of lysate. 25 μl of lysate was transferred into a microplate well and mixed with 25 μl of β-galactosidase Assay Reagent, equilibrated to room temperature. The mixture was incubated at 37° C. for 30 min and absorbance measured at 405 nm.
(§3) Luciferase readouts were normalised to β-galactosidase to produce normalised relative luminometer units (RLUs).

CHO-GSK1SV = assay: Luciferase expression in normoxia vs 24 h hypoxia, transiently transfected CHO-GS suspension cells; type: cell-based, chinese hamster; details: for relative rank of promoter strength: transient CHO-GSK1SV, hypoxia; for inducibility after 24 hours in hypoxia (rank) / luciferase activity in normoxia: transient CHO_GS
Protocol: 40 ml of cells were grown in a 250 ml vented Erlenmeyer flask (Sigma-Aldrich CLS431144) at 37° C., 20% O2, 8% CO2 with agitation at 100 rpm. Cells were seeded as at 300,000 cells/ml.
(§4) One day before transfection, the cells were counted using a haemocytometer and split to 500,000 cells/ml.
(§5) On the day of transfection, the cells are seeded to 1,000,000 cells/ml in 500 μl of appropriate medium (Thermofisher, CD-CHO 10743029) in a 24 well plate. […] of DNA per well was then added to 10 μl of OptiMem medium (Thermofisher; 11058021) and incubated for 5 minutes at room temperature.
Concurrently, 0.625 μl of Freestyle Max reagent (Thermofisher, 16447100) was made up to 10 μl by addition of OptiMem and incubated for 5 minutes at room temperature. After this incubation, both mixes were added to the same tube and incubated at room temperature for 25-30 minutes. The DNA/Max reagent mix (20 μl/well) was then added directly to the cells and the cells incubated at 37 C, 8% CO2 with agitation at 100 rpm.
The transfected DNA was one of the vectors where the promoter constructs (RTV-015, HYBT, RTV-016, HV3C) or a control promoter (CMV-IE) were used to drive luciferase expression and β-galactosidase containing pcDNA6 plasmid. The β-galactosidase containing plasmid was used as internal control for transfection efficiency (Thermofisher, V22020).
as §1, with “chamber. Luciferase activity was measured as described above.” for “chamber.”

HEK293-F = assay: Luciferase time course under hypoxia, transiently transfected HEK293-F; type: cell-based, human; details: hypoxia 5% oxygen, printed order RTV-015, SYNP-HYP-001, RTV-016, HYBT, HV3C
Protocol: The constructs were initially used to drive luciferase expression in HEK293-F and HEK293-T in hypoxia.
40 ml of cells were grown in a 250 ml vented Erlenmeyer flask (Sigma-Aldrich CLS431144) at 37° C., 20% O2, 8% CO2 with agitation at 100 rpm. Cells were seeded as described in the manufacturer's instructions (300,000 cells/ml). HEK293-F were obtained from Thermofisher, R79007.
as §4
as §5, with “(Freestyle 293 expression medium, 12338002)” for “(Thermofisher, CD-CHO 10743029)”
Concurrently, 0.625 μl of Max reagent (Thermofisher, 16447100) was made up to 10 μl by addition of OptiMem and incubated for 5 minutes at room temperature. After this incubation, both mixes were added to the same tube and incubated at room temperature for 25-30 minutes. […]
After transfection the cells were incubated for 24 hrs in normoxia conditions (20% oxygen) before being switched to a gas mix of 5% oxygen, 10% carbon dioxide and 85% nitrogen (hypoxia). […] Induction of the promoters was assessed by using luciferase activity after 3, 5 and 24 hrs in hypoxia.
as §2
Media was removed from the cells at the respective time point (0, 3, 5, 24 hrs after induction). […] 10 μl of supernatant was pipetted into white 96-well plate and luminescence measured by addition of 50 μl of LARII substrate.
β-galactosidase activity was measured as per manufacturer's instructions (Mammalian βGalactosidase Assay Kit, 75707/75710, Thermo Scientific) using 25 μl of lysate. […] The mixture was incubated at 37° C. for 30 min and absorbance measured at 405 nm.
as §3

Molecule	inducibility after 24 hours in hypoxia (rank) (HEK293-T)	luciferase activity in normoxia (HEK293-T)	relative rank of promoter strength (HEK293-T)	relative rank of promoter strength (CHO-GSK1SV)	inducibility after 24 hours in hypoxia (rank) (CHO-GSK1SV)	luciferase activity in normoxia (CHO-GSK1SV)	relative rank of promoter activity (HEK293-F)
RTV-015: synthetic hypoxia-inducible promoter, SEQ ID NO: 81; 5 HRE1 elements spaced by 40 bp and minimal promoter MP1 (nucleic acid, Synp-RTV-015, 5 HRE1 elements spaced by 40 bp and minimal promoter MP1) DNA: ACGTGCGATGATGCGTAGCTAGTAGTGATGATGCGTAGCTAGTAGTACGTGCGATGATGCGTAGCTAGTAGTGATGATGCGTAGCTAGTAGTACGTGCGATGATGCGTAGCTAGTAGTGATGATGCGTAGCTAGTAGTACGTGCGATGATGCGTAGCTAGTAGTGATGATGCGTAGCTAGTAGTACGTGCTTGGTACCATCCGGGCCGGCCGCTTAAGCGACGCCTATAAAAAATAGGTTGCATGCTAGGCCTAGCGCTGCCAGTCCATCTTCGCTAGCCTGTGCTGCGTCAGTCCAGCGCTGCGCTGCGTAACGGCCGCC	lowest	almost no luciferase activity	weakest	weakest	lowest	almost no luciferase activity	weakest
HV3C: synthetic hypoxia-inducible promoter, SEQ ID NO: 85/87; 4 HRE3 elements and CMV minimal promoter (nucleic acid, Synp-HV3C, 4 HRE3 elements and CMV minimal promoter) DNA: GATCTTTGTATTTAATTAAGACCTTGAGTACGTGCGTCTCTGCACGTATGGCGATTAAGACCTTGAGTACGTGCGTCTCTGCACGTATGGCGATTAAGACCTTGAGTACGTGCGTCTCTGCACGTATGGCGATTAAGACCTTGAGTACGTGCGTCTCTGCACGTATGGCGATTAATCCATATGCAGGTCTATATAAGCAGAGCTCGTTTAGTGAACCGTCAGATCGCCTAGATACGCCATCCACGCTGTTTTGACCTCCATAGAAGATCGCCACC	highest	almost no luciferase activity	strongest	strongest	highest	almost no luciferase activity	strongest

Source: patent publication US20230167458A1, “FORSKOLIN-INDUCIBLE PROMOTERS AND HYPOXIA-INDUCIBLE PROMOTERS” (ASKLEPIOS BIOPHARMACEUTICAL, INC., priority 2020, published 2023)
